From publication PMC3511393, “Identification and Characterisation of the RalA-ERp57 Interaction: Evidence for GDI Activity of ERp57” (PLoS ONE, 2012)

Biological target: T1, 6xHis-ERp57 (human, UniProt P30101 24-505)
T1 construct: ERp57, human cDNA without the region encoding the N-terminal signal peptide (amino acids 1-23); also called wt ERp57; wild-type 6xHis-ERp57; source: E. coli, purified (Ni-NTA); not shown: 6xHis, N-terminal, kept
T1 sequence (looked up): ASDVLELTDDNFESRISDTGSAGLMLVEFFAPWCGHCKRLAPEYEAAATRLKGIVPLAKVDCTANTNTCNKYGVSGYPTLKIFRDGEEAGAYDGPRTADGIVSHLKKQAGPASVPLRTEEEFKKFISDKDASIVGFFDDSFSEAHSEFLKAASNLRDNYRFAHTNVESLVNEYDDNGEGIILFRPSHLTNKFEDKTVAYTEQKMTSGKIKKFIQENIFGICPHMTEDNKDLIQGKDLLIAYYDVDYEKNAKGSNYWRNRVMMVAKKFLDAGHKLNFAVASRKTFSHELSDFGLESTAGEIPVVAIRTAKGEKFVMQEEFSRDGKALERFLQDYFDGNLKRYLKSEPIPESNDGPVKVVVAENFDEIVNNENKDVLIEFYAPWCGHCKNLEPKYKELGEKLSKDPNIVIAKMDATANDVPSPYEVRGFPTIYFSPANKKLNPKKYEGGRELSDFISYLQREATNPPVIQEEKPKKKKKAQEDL
Assay: pull-down; GST-RalA loaded with GDP as bait; purified 6xHis-ERp57 or mutants; Western blot with anti-6xHis antibody; with or without 1 mM DTT
Conditions: both partners purified

B1: GST-RalA (natural protein, simian, UniProt P63320 1-206, looked up)
chain: MAANKPKGQNSLALHKVIMVGSGGVGKSALTLQFMYDEFVEDYEPTKADSYRKKVVLDGEEVQIDILDTAGQEDYAAIRDNYFRSGEGFLCVFSITEMESFAATADFREQILRVKEDENVPFLLVGNKSDLEDKRQVSVEEAKNRADQWNVNYVETSAKTRANVDKVFFDLMREIRARKMEDSKEKNGKKKRKSLAKRIRERCCIL
notes: RalA, simian cDNA (pGEX-2T-RalA from Yoshito Kaziro); loaded with GDP or GTP immediately before use; Nucleotide state (GDP or GTP) is told by the assay; also called RalA-GDP; RalA-GTP; source: when necessary eluted with reduced GSH and dialysed; not shown: GST, N-terminal, kept
  binding result: binds
